Laboratory results: paper PMC4575180 (2015)

Biological target: T1, syntaxin3 (Rattus norvegicus (Rat), UniProt Q08849)
T1 chain: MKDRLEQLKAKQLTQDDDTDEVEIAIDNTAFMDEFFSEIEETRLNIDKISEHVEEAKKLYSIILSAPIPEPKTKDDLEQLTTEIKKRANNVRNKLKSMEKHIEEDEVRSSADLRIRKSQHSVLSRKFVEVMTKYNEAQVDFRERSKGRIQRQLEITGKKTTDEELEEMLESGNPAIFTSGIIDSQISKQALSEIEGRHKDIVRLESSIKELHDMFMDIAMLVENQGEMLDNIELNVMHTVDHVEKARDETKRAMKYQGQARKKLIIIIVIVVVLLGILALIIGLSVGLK
Experiment: pull-down

B1: Munc18c (protein)
chain: MAPPVSERGLKSVVWRKIKTAVFDDCRKEGEWKIMLLDEFTTKLLSSCCKMTDLLEEGITVIENIYKNREPVRQMKALYFISPTPKSVDCFLRDFGSKSEKKYKAAYIYFTDFCPDSLFNKIKASCSKSIRRCKEINISFIPQESQVYTLDVPDAFYYCYSPDPSNASRKEVVMEAMAEQIVTVCATLDENPGVRYKSKPLDNASKLAQLVEKKLEDYYKIDEKGLIKGKTQSQLLIIDRGFDPVSTVLHELTFQAMAYDLLPIENDTYKYKTDGKEKEAVLEEDDDLWVRVRHRHIAVVLEEIPKLMKEISSTKKATEGKTSLSALTQLMKKMPHFRKQISKQVVHLNLAEDCMNKFKLNIEKLCKTEQDLALGTDAEGQRVKDSMLVLLPVLLNKNHDNCDKIRAVLLYIFGINGTTEENLDRLIHNVKIEDDSDMIRNWSHLGVPIVPPSQQAKPLRKDRSAEETFQLSRWTPFIKDIMEDAIDNRLDSKEWPYCSRCPAVWNGSGAVSARQKPRTNYLELDRKNGSRLIIFVIGGITYSEMRCAYEVSQAHKSCEVIIGSTHILTPRKLLDDIKMLNKSKDKVSFKDE
Does B1 bind?
Result: no binding
